Test results taken from PMC3653069.

Molecular target: MutSα (MSH2 subunit);MutSα (MSH6 subunit) (human;human, UniProt P43246;P52701 1-934;1-1360, |)
Assay: EMSA

B1: rC/G (dsDNA)
DNA 1: CCAGACGTCTGTCGACGTTGGGAAGCTTGAG
DNA 2: CTCAAGCTTCCCAACGTCGACAGACGTCTGG
modifications: single ribocytidine at position 13 of strand 1 (rC opposite G)
binding result: no binding
